Results: patent JP2022028645A (dated 2022)
Numbering of substitutions follows the chain as printed. Numbers in names are those of the source.

Key:
[1] = target: T1, Human EGFRvIII expressed on cells (CHO-EGFRvIII, DK-MG, U87MG-EGFRvIII) (human, UniProt P00533 298-1210); experiment: flow cytometry on CHO-EGFRvIII and EGFRvIII-positive DK-MG cells
T1 construct: also called EGFRvIII; huEGFRvIII

[2] = target: T1, Human EGFRvIII expressed on cells …; experiment: SPR and flow cytometry on U87MG-EGFRvIII and MKN-45 cells, compared with the parental binder
[3] = target: T1, Human EGFRvIII expressed on cells …; experiment: flow cytometry on CHO-EGFRvIII cells, TCB against the corresponding IgG
[4] = target: T2, Recombinant cynomolgus CD3 antigen: heterodimer of cynomolgus CD3 delta and CD3 epsilon ectodomains fused to … (cynomolgus monkey); experiment: SPR (Biacore T200), TCB captured at 20 nM by anti-PGLALA antibody, CD3 antigen as analyte, 1:1 Langmuir fit
T2 construct: also called カニクイザルCD3

[5] = target: T3, Recombinant human CD3 antigen: heterodimer of CD3 delta and CD3 epsilon ectodomains fused to human Fc domain … (human); experiment: as above
T3 construct: also called 組換えCD3; ヒトCD3

[6] = target: T4, EGFRvIII-ECD avi his (extracellular domain of human EGFRvIII fused to C-terminal Avi-tag and His-tag) (human); experiment: SPR (Biacore T200), TCB (5 nM) captured by anti-Fc antibody, EGFRvIII-ECD avi his 3-fold dilution series as analyte, 1:1 Langmuir fit
T4 construct: also called 組み換えEGFRvIII; EGFRvIII抗原

[7] = target: T2, Recombinant cynomolgus CD3 antigen: …; experiment: SPR (Biacore T200), TCB captured by anti-PGLALA antibody, CD3 antigen 12.35-3000 nM as analyte, 1:1 Langmuir fit
[8] = target: T3, Recombinant human CD3 antigen: …; experiment: as above
[9] = target: T3, Recombinant human CD3 antigen: …; experiment: SPR (Biacore T200), antibody captured by anti-Fab, CD3 antigen 10 ug/ml, relative active concentration after 14 days of temperature stress
[10] = target: T5, Mouse TYRP1 extracellular domain (ECD), monomeric fusion to human Fc domain with knob-into-hole and PG LALA … (mouse, UniProt P01857 104-328 = IgG part); experiment: SPR (Biacore T200), TYRP1 ECD-Fc captured by anti-PGLALA antibody, Fab 3-fold dilution series as analyte, 1:1 Langmuir fit
T5 construct: also called マウスTYRP1

[11] = target: T6, Human TYRP1 extracellular domain (ECD), monomeric fusion to human Fc domain with knob-into-hole and PG LALA … (human, UniProt P01857 104-328 = IgG part); experiment: as above
T6 construct: also called ヒトTYRP1

[12] = target: T7, Cynomolgus TYRP1 extracellular domain (ECD), monomeric fusion to human Fc domain with knob-into-hole and PG … (cynomolgus monkey, UniProt P01857 104-328 = IgG part); experiment: as above
T7 construct: also called カニクイザルTYRP1

B1: EGFRvIII IgG PGLALA P056.021 (antibody, human IgG1, V domains shown)
VH: EVQLVQSGAEVKKPGESLKISCKGSGYSFDSYWIAWVRQMPGKGLEWMGVIHPYDSDTRYSPSFQGQVTISADKSISTAYLQWSSLKASDTAMYYCARVSRSSYAFDYWGQGTLVTVSS
VL: not shown
notes: Human IgG1 with P329G L234A L235A; also called P056.021
- binding result [1]: binds

B2: EGFRvIII IgG PGLALA P063.056 (affinity-matured EGFRvIII binder) (antibody, human IgG1, V domains shown)
VH: B1 VH
VL: not shown
notes: Human IgG1 PGLALA; also called P063.056
- binding result [2]: binds

B3: EGFRvIII TCB P056.021 (with CD3orig, 2+1 IgG CrossFab inverted) (bispecific antibody, V domains shown)
VH 1: B1 VH
VL 1: not shown
VH 2: not shown
VL 2: QAVVTQEPSLTVSPGGTVTLTCGSSTGAVTTSNYANWVQEKPGQAFRGLIGGTNKRAPGTPARFSGSLLGGKAALTLSGAQPEDEAEYYCALWYSNLWVFGGGTKLTVL
notes: only the variable domains can be tied to it; also called P056.021 EGFRvIII TCB; parental EGFRvIII TCB
- binding result [3]: binds

B4: EGFRvIII TCB CD3 opt (EGFRvIII binder P063.056 and optimized CD3 binder, 2+1 IgG CrossFab inverted) (bispecific antibody)
heavy 1: not shown
heavy 2: EVQLVQSGAEVKKPGESLKISCKGSGYSFDSYWIAWVRQMPGKGLEWMGVIHPYDSDTRYSPSFQGQVTISADKSISTAYLQWSSLKASDTAMYYCARVSRSSYAFDYWGQGTLVTVSSASTKGPSVFPLAPSSKSTSGGTAALGCLVEDYFPEPVTVSWNSGALTSGVHTFPAVLQSSGLYSLSSVVTVPSSSLGTQTYICNVNHKPSNTKVDEKVEPKSCDKTHTCPPCPAPEAAGGPSVFLFPPKPKDTLMISRTPEVTCVVVDVSHEDPEVKFNWYVDGVEVHNAKTKPREEQYNSTYRVVSVLTVLHQDWLNGKEYKCKVSNKALGAPIEKTISKAKGQPREPQVCTLPPSRDELTKNQVSLSCAVKGFYPSDIAVEWESNGQPENNYKTTPPVLDSDGSFFLVSKLTVDKSRWQQGNVFSCSVMHEALHNHYTQKSLSLSP
light 1: not shown
light 2: EVQLLESGGGLVQPGGSLRLSCAASGFQFSSYAMNWVRQAPGKGLEWVSRIRSKYNNYATYYADSVKGRFTISRDDSKNTLYLQMNSLRAEDTAVYYCVRHTTFPSSYVSYYGYWGQGTLVTVSSASVAAPSVFIFPPSDEQLKSGTASVVCLLNNFYPREAKVQWKVDNALQSGNSQESVTEQDSKDSTYSLSSTLTLSKADYEKHKVYACEVTHQGLSSPVTKSFNRGEC
notes: Chain roles inferred as for TYRP1 TCB; also called EGFRvIII TCB; P063.056 EGFRvIII TCB with CD3opt
- Kd [4]: 20 nM
- Kd [5]: 30 nM
- Kd [6]: 6 nM

B5: TYRP1 TCB CD3 opt (T cell bispecific antibody to CD3 and TYRP1 with optimized CD3 binder, 2+1 IgG CrossFab inverted, charge modifications, PGLALA) (bispecific antibody)
heavy 1: not shown
heavy 2: QVQLVQSGAEVKKPGASVKVSCKASGFNIKDYFLHWVRQAPGQGLEWMGWINPDNGNTVYAQKFQGRVTMTADTSTSTVYMELSSLRSEDTAVYYCTRRDYTYEKAALDYWGQGTLVTVSSASTKGPSVFPLAPSSKSTSGGTAALGCLVEDYFPEPVTVSWNSGALTSGVHTFPAVLQSSGLYSLSSVVTVPSSSLGTQTYICNVNHKPSNTKVDEKVEPKSCDKTHTCPPCPAPEAAGGPSVFLFPPKPKDTLMISRTPEVTCVVVDVSHEDPEVKFNWYVDGVEVHNAKTKPREEQYNSTYRVVSVLTVLHQDWLNGKEYKCKVSNKALGAPIEKTISKAKGQPREPQVCTLPPSRDELTKNQVSLSCAVKGFYPSDIAVEWESNGQPENNYKTTPPVLDSDGSFFLVSKLTVDKSRWQQGNVFSCSVMHEALHNHYTQKSLSLSP
light 1: DIQMTQSPSSLSASVGDRVTITCRASGNIYNYLAWYQQKPGKVPKLLIYDAKTLADGVPSRFSGSGSGTDFTLTISSLQPEDVATYYCQHFWSLPFTFGQGTKLEIKRTVAAPSVFIFPPSDRKLKSGTASVVCLLNNFYPREAKVQWKVDNALQSGNSQESVTEQDSKDSTYSLSSTLTLSKADYEKHKVYACEVTHQGLSSPVTKSFNRGEC
light 2: B4 light 2
notes: also called TYRP1 TCB; TYRP-1 TCB
- Kd [7]: 20 nM
- Kd [8]: 50 nM

B6: EGFRvIII TCB CD3 orig (EGFRvIII binder P063.056 and original CD3 binder, 2+1 IgG CrossFab inverted) (bispecific antibody)
heavy 1: not shown
heavy 2: B4 heavy 2
light 1: not shown
light 2: B4 light 2 with Q28T, S31T, T102G, T103N, P105G, S106N, Y111W, Y112F, G113A
notes: chain roles inferred; also called P063.056 EGFRvIII TCB with CD3orig
- Kd [5]: 40 nM
- Kd [6]: 6 nM

B7: TYRP1 TCB CD3 orig (T cell bispecific antibody to CD3 and TYRP1 with original CD3 binder, 2+1 IgG CrossFab inverted) (bispecific antibody)
heavy 1: not shown
heavy 2: B5 heavy 2
light 1: B5 light 1
light 2: B4 light 2 with Q28T, S31T, T102G, T103N, P105G, S106N, Y111W, Y112F, G113A
notes: chain roles inferred as for the CD3opt molecule
- Kd [8]: 50 nM

B8: CD3 opt ヒトIgG1 PGLALA (optimized CD3 binder, human IgG1 with P329G L234A L235A) (antibody, V domains shown)
VH: EVQLLESGGGLVQPGGSLRLSCAASGFQFSSYAMNWVRQAPGKGLEWVSRIRSKYNNYATYYADSVKGRFTISRDDSKNTLYLQMNSLRAEDTAVYYCVRHTTFPSSYVSYYGYWGQGTLVTVSS
VL: QAVVTQEPSLTVSPGGTVTLTCGSSTGAVTTSNYANWVQEKPGQAFRGLIGGTNKRAPGTPARFSGSLLGGKAALTLSGAQPEDEAEYYCALWYSNLWVFGGGTKLTVLR
notes: also called CD3opt; CD3opt IgG PGLALA
- binding result [9]: binds

B9: TYRP1 Fab断片 (Fab fragment of the humanized TA99-derived TYRP1 binder, made by plasmin digestion of the corresponding antibody) (Fab, V domains shown)
VH: QVQLVQSGAEVKKPGASVKVSCKASGFNIKDYFLHWVRQAPGQGLEWMGWINPDNGNTVYAQKFQGRVTMTADTSTSTVYMELSSLRSEDTAVYYCTRRDYTYEKAALDYWGQGTLVTVSS
VL: DIQMTQSPSSLSASVGDRVTITCRASGNIYNYLAWYQQKPGKVPKLLIYDAKTLADGVPSRFSGSGSGTDFTLTISSLQPEDVATYYCQHFWSLPFTFGQGTKLEIK
notes: also called TYRP1 Fab
- Kd [10]: 0.53 nM
- Kd [11]: 0.13 nM
- Kd [12]: 0.18 nM
